Assay results as given in the supplement of paper PMC9112550, “Optimization of the antimicrobial peptide Bac7 by deep mutational scanning” (BMC Biology, 2022).

Test system: Escherichia coli TOP10
Assay: shrunken log2 fold change of peptide-encoding DNA abundance (4.5 h post-induction vs induction); higher = less antimicrobial activity (less host growth inhibition)
Details: time post-induction: 4.5 h; library: site-saturation at positions 5, 18, 19, 20
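Note: peptides expressed intracellularly from a pBAD plasmid library in pooled LB shake-flask culture, induced with 0.3% L-arabinose, DNA abundance read by NGS, three biological replicates, DESeq2 with apeglm shrinkage.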

For RRIRHRPPRLPRPRPRPVGRPRP, the “shrunken log2 fold change” value was 0.226.
In the case of RRIRARPPRLPRPRPRPCLLPRP, the “shrunken log2 fold change” value is reported as 0.0509.
With RRIRNRPPRLPRPRPRPFTWPRP the “shrunken log2 fold change” value was -0.62.
RRIRPRPPRLPRPRPRPKFWPRP was tested, and the “shrunken log2 fold change” value was 0.414.
RRIRIRPPRLPRPRPRPLYEPRP was tested, and the “shrunken log2 fold change” value was -0.649.
In the case of RRIRDRPPRLPRPRPRPGMWPRP, the “shrunken log2 fold change” value is reported as 0.634.
In the case of RRIRFRPPRLPRPRPRPVPMPRP, the “shrunken log2 fold change” value is reported as 0.108.
RRIRCRPPRLPRPRPRPNVGPRP was tested, and the “shrunken log2 fold change” value was 0.0143.
In the case of RRIRSRPPRLPRPRPRPEYNPRP, the “shrunken log2 fold change” value is reported as -0.229.
With RRIRFRPPRLPRPRPRPSLQPRP the “shrunken log2 fold change” value was -0.31.
In the case of RRIRVRPPRLPRPRPRPTFGPRP, the “shrunken log2 fold change” value is reported as 0.215.
For RRIRMRPPRLPRPRPRPNGIPRP, the “shrunken log2 fold change” value was 0.0753.
In the case of RRIRMRPPRLPRPRPRPVIWPRP, the “shrunken log2 fold change” value is reported as 0.46.
For RRIRVRPPRLPRPRPRPFCWPRP, the “shrunken log2 fold change” value was 0.163.
With RRIRFRPPRLPRPRPRPEPQPRP the “shrunken log2 fold change” value was 0.417.
RRIRRRPPRLPRPRPRPYVIPRP was tested, and the “shrunken log2 fold change” value was 0.0475.
With RRIRRRPPRLPRPRPRPSGYPRP the “shrunken log2 fold change” value was -0.201.
RRIRARPPRLPRPRPRPMAWPRP was tested, and the “shrunken log2 fold change” value was 0.662.
In the case of RRIRNRPPRLPRPRPRPPIYPRP, the “shrunken log2 fold change” value is reported as -0.202.
With RRIRVRPPRLPRPRPRPGTVPRP the “shrunken log2 fold change” value was 0.421.
RRIRDRPPRLPRPRPRPCLQPRP was tested, and the “shrunken log2 fold change” value was -0.0105.
RRIRKRPPRLPRPRPRPMEYPRP was tested, and the “shrunken log2 fold change” value was -0.00192.
RRIRKRPPRLPRPRPRPFCKPRP was tested, and the “shrunken log2 fold change” value was 0.326.
With RRIRHRPPRLPRPRPRPTEVPRP the “shrunken log2 fold change” value was -0.0182.
RRIRPRPPRLPRPRPRPITKPRP was tested, and the “shrunken log2 fold change” value was -0.0256.
For RRIRNRPPRLPRPRPRPEMCPRP, the “shrunken log2 fold change” value was 0.00911.
With RRIRARPPRLPRPRPRPQYRPRP the “shrunken log2 fold change” value was -0.208.
RRIRDRPPRLPRPRPRPDNAPRP was tested, and the “shrunken log2 fold change” value was -0.0954.
In the case of RRIRRRPPRLPRPRPRPQMPPRP, the “shrunken log2 fold change” value is reported as 0.283.
RRIRRRPPRLPRPRPRPIGPPRP was tested, and the “shrunken log2 fold change” value was 0.147.
In the case of RRIRQRPPRLPRPRPRPELYPRP, the “shrunken log2 fold change” value is reported as -0.113.
RRIRDRPPRLPRPRPRPYCNPRP was tested, and the “shrunken log2 fold change” value was -0.137.
RRIRARPPRLPRPRPRPMPFPRP was tested, and the “shrunken log2 fold change” value was 0.263.
With RRIRLRPPRLPRPRPRPERIPRP the “shrunken log2 fold change” value was 0.0484.
With RRIRIRPPRLPRPRPRPLDYPRP the “shrunken log2 fold change” value was -0.504.
In the case of RRIRCRPPRLPRPRPRPDNCPRP, the “shrunken log2 fold change” value is reported as 0.0206.
RRIRWRPPRLPRPRPRPQQAPRP was tested, and the “shrunken log2 fold change” value was -0.000157.
For RRIRIRPPRLPRPRPRPGQWPRP, the “shrunken log2 fold change” value was -0.124.
RRIRRRPPRLPRPRPRPVNVPRP was tested, and the “shrunken log2 fold change” value was -0.0902.
In the case of RRIRTRPPRLPRPRPRPSVPPRP, the “shrunken log2 fold change” value is reported as -0.0459.
With RRIRPRPPRLPRPRPRPEHQPRP the “shrunken log2 fold change” value was -0.0202.
With RRIRDRPPRLPRPRPRPIGKPRP the “shrunken log2 fold change” value was -0.153.
In the case of RRIRFRPPRLPRPRPRPHSGPRP, the “shrunken log2 fold change” value is reported as 0.0508.
RRIRWRPPRLPRPRPRPAKNPRP was tested, and the “shrunken log2 fold change” value was 0.263.
RRIRCRPPRLPRPRPRPWYNPRP was tested, and the “shrunken log2 fold change” value was -1.45.
With RRIRWRPPRLPRPRPRPVEKPRP the “shrunken log2 fold change” value was 0.234.
For RRIRARPPRLPRPRPRPRDWPRP, the “shrunken log2 fold change” value was 0.577.
RRIRIRPPRLPRPRPRPLGTPRP was tested, and the “shrunken log2 fold change” value was -0.356.
For RRIRQRPPRLPRPRPRPCYTPRP, the “shrunken log2 fold change” value was -0.149.
With RRIRRRPPRLPRPRPRPIHYPRP the “shrunken log2 fold change” value was -0.359.
With RRIRARPPRLPRPRPRPFFEPRP the “shrunken log2 fold change” value was 0.423.
RRIRRRPPRLPRPRPRPKICPRP was tested, and the “shrunken log2 fold change” value was 0.0561.
In the case of RRIRARPPRLPRPRPRPVNSPRP, the “shrunken log2 fold change” value is reported as -0.0786.
With RRIRVRPPRLPRPRPRPDEYPRP the “shrunken log2 fold change” value was 0.0327.
In the case of RRIRWRPPRLPRPRPRPRSIPRP, the “shrunken log2 fold change” value is reported as -0.006.
With RRIRRRPPRLPRPRPRPVMAPRP the “shrunken log2 fold change” value was 0.281.
In the case of RRIRSRPPRLPRPRPRPRIKPRP, the “shrunken log2 fold change” value is reported as -0.00375.
With RRIRCRPPRLPRPRPRPPWYPRP the “shrunken log2 fold change” value was -0.0833.
For RRIRCRPPRLPRPRPRPTVEPRP, the “shrunken log2 fold change” value was 0.199.
RRIRGRPPRLPRPRPRPDIYPRP was tested, and the “shrunken log2 fold change” value was 1.05.
In the case of RRIRQRPPRLPRPRPRPEYTPRP, the “shrunken log2 fold change” value is reported as -0.11.
RRIRYRPPRLPRPRPRPFHPPRP was tested, and the “shrunken log2 fold change” value was -0.146.
For RRIRIRPPRLPRPRPRPNHQPRP, the “shrunken log2 fold change” value was -0.164.
RRIRPRPPRLPRPRPRPTRRPRP was tested, and the “shrunken log2 fold change” value was 0.591.
For RRIRCRPPRLPRPRPRPKYGPRP, the “shrunken log2 fold change” value was 0.0136.
With RRIRLRPPRLPRPRPRPTHLPRP the “shrunken log2 fold change” value was -0.12.
For RRIRLRPPRLPRPRPRPQDYPRP, the “shrunken log2 fold change” value was -0.31.
RRIRLRPPRLPRPRPRPGYNPRP was tested, and the “shrunken log2 fold change” value was -0.774.
In the case of RRIRLRPPRLPRPRPRPKSWPRP, the “shrunken log2 fold change” value is reported as 0.176.
RRIRFRPPRLPRPRPRPNQDPRP was tested, and the “shrunken log2 fold change” value was -0.361.
For RRIRARPPRLPRPRPRPDAYPRP, the “shrunken log2 fold change” value was 0.522.
For RRIRERPPRLPRPRPRPDTFPRP, the “shrunken log2 fold change” value was -0.00141.
In the case of RRIRRRPPRLPRPRPRPRTFPRP, the “shrunken log2 fold change” value is reported as 0.338.
For RRIRVRPPRLPRPRPRPRFGPRP, the “shrunken log2 fold change” value was 0.249.
With RRIRIRPPRLPRPRPRPLMWPRP the “shrunken log2 fold change” value was -0.115.
For RRIRMRPPRLPRPRPRPLQTPRP, the “shrunken log2 fold change” value was 3.06.
RRIRLRPPRLPRPRPRPIGWPRP was tested, and the “shrunken log2 fold change” value was 0.156.
For RRIRARPPRLPRPRPRPIINPRP, the “shrunken log2 fold change” value was -0.174.
RRIRMRPPRLPRPRPRPPNQPRP was tested, and the “shrunken log2 fold change” value was 0.42.
RRIRERPPRLPRPRPRPIYPPRP was tested, and the “shrunken log2 fold change” value was -0.0605.
RRIRPRPPRLPRPRPRPLGYPRP was tested, and the “shrunken log2 fold change” value was -0.0805.
With RRIRNRPPRLPRPRPRPRDPPRP the “shrunken log2 fold change” value was 0.457.
For RRIRNRPPRLPRPRPRPLTEPRP, the “shrunken log2 fold change” value was 0.284.
For RRIRGRPPRLPRPRPRPVKFPRP, the “shrunken log2 fold change” value was 0.326.
For RRIRNRPPRLPRPRPRPPRFPRP, the “shrunken log2 fold change” value was 0.441.
With RRIRYRPPRLPRPRPRPHHLPRP the “shrunken log2 fold change” value was -0.329.
In the case of RRIRVRPPRLPRPRPRPCFYPRP, the “shrunken log2 fold change” value is reported as -0.511.
RRIRVRPPRLPRPRPRPEEFPRP was tested, and the “shrunken log2 fold change” value was -0.034.
For RRIRMRPPRLPRPRPRPPHMPRP, the “shrunken log2 fold change” value was 0.296.
For RRIRRRPPRLPRPRPRPISFPRP, the “shrunken log2 fold change” value was -0.27.
In the case of RRIRDRPPRLPRPRPRPSHQPRP, the “shrunken log2 fold change” value is reported as -0.211.
RRIRNRPPRLPRPRPRPECLPRP was tested, and the “shrunken log2 fold change” value was 0.254.
RRIRYRPPRLPRPRPRPHMNPRP was tested, and the “shrunken log2 fold change” value was -1.2.
With RRIRARPPRLPRPRPRPQHLPRP the “shrunken log2 fold change” value was -0.0998.
In the case of RRIRRRPPRLPRPRPRPITTPRP, the “shrunken log2 fold change” value is reported as 0.032.
In the case of RRIRCRPPRLPRPRPRPGGDPRP, the “shrunken log2 fold change” value is reported as 0.142.
In the case of RRIRNRPPRLPRPRPRPHTWPRP, the “shrunken log2 fold change” value is reported as -0.296.
In the case of RRIRDRPPRLPRPRPRPVCEPRP, the “shrunken log2 fold change” value is reported as 1.18.
RRIRSRPPRLPRPRPRPTGTPRP was tested, and the “shrunken log2 fold change” value was -0.0039.
In the case of RRIRRRPPRLPRPRPRPYPEPRP, the “shrunken log2 fold change” value is reported as 0.00427.
With RRIRARPPRLPRPRPRPRMKPRP the “shrunken log2 fold change” value was 0.457.
RRIRQRPPRLPRPRPRPHSTPRP was tested, and the “shrunken log2 fold change” value was -0.149.
For RRIRKRPPRLPRPRPRPPMGPRP, the “shrunken log2 fold change” value was 0.185.
RRIRLRPPRLPRPRPRPAGTPRP was tested, and the “shrunken log2 fold change” value was 0.216.
RRIRYRPPRLPRPRPRPWQKPRP was tested, and the “shrunken log2 fold change” value was -0.166.
RRIRQRPPRLPRPRPRPFNMPRP was tested, and the “shrunken log2 fold change” value was 0.00759.
RRIRDRPPRLPRPRPRPPSRPRP was tested, and the “shrunken log2 fold change” value was -0.0515.
RRIRGRPPRLPRPRPRPAMLPRP was tested, and the “shrunken log2 fold change” value was 0.7.
For RRIRLRPPRLPRPRPRPLPVPRP, the “shrunken log2 fold change” value was 0.0348.
With RRIRARPPRLPRPRPRPCGLPRP the “shrunken log2 fold change” value was -0.0341.
With RRIRRRPPRLPRPRPRPASAPRP the “shrunken log2 fold change” value was 0.227.
In the case of RRIRQRPPRLPRPRPRPRGKPRP, the “shrunken log2 fold change” value is reported as 0.00142.
In the case of RRIRYRPPRLPRPRPRPSGFPRP, the “shrunken log2 fold change” value is reported as -0.99.
With RRIRVRPPRLPRPRPRPQNDPRP the “shrunken log2 fold change” value was -0.292.
With RRIRERPPRLPRPRPRPVWYPRP the “shrunken log2 fold change” value was -0.383.
In the case of RRIRPRPPRLPRPRPRPAWTPRP, the “shrunken log2 fold change” value is reported as 0.492.
With RRIRNRPPRLPRPRPRPEDLPRP the “shrunken log2 fold change” value was -0.00079.
For RRIRNRPPRLPRPRPRPDMEPRP, the “shrunken log2 fold change” value was -0.0836.
RRIRARPPRLPRPRPRPHVDPRP was tested, and the “shrunken log2 fold change” value was 0.142.
In the case of RRIRKRPPRLPRPRPRPAKPPRP, the “shrunken log2 fold change” value is reported as 0.464.
For RRIRERPPRLPRPRPRPPFVPRP, the “shrunken log2 fold change” value was 0.072.
RRIRSRPPRLPRPRPRPTVRPRP was tested, and the “shrunken log2 fold change” value was -0.00791.
For RRIRNRPPRLPRPRPRPDCAPRP, the “shrunken log2 fold change” value was 0.315.
For RRIRPRPPRLPRPRPRPFHVPRP, the “shrunken log2 fold change” value was -0.428.
RRIRVRPPRLPRPRPRPIKMPRP was tested, and the “shrunken log2 fold change” value was -0.697.
